Assay results: paper doi:10.1101/2023.08.25.554800, “CryoEM architecture of a native stretch-sensitive membrane microdomain” (bioRxiv, 2023)

Biological target: the molecule itself
Assay: cryo-EM structure; 15-20uM recombinant Pil1 with ~2mg/mL LUVs of three lipid mixtures (-PI(4,5)P2/+sterol, +PI(4,5)P2/-sterol, +PI(4,5)P2/+sterol), 30°C for 1hr, 20 mM HEPES pH 7.4, 150 mM KoAc, 2 mM MgAc; helical reconstruction

B1: Recombinant Pil1 (natural protein, S. cerevisiae, UniProt P53252 1-339, looked up)
chain: MHRTYSLRNSRAPTASQLQNPPPPPSTTKGRFFGKGGLAYSFRRSAAGAFGPELSRKLSQLVKIEKNVLRSMELTANERRDAAKQLSIWGLENDDDVSDITDKLGVLIYEVSELDDQFIDRYDQYRLTLKSIRDIEGSVQPSRDRKDKITDKIAYLKYKDPQSPKIEVLEQELVRAEAESLVAEAQLSNITRSKLRAAFNYQFDSIIEHSEKIALIAGYGKALLELLDDSPVTPGETRPAYDGYEASKQIIIDAESALNEWTLDSAQVKPTLSFKQDYEDFEPEEGEEEEEEDGQGRWSEDEQEDGQIEEPEQEEEGAVEEHEQVGHQQSESLPQQTTA
notes: Pil1 of S. cerevisiae, PIL1 cloned into pCoofy6; the printed primers run from the ATG to the stop codon; The N-terminal position of Sumo3 is read from the primer LP1-Sumo3-Pil1-fwd; also called reconstituted Pil1; source: E. coli BL21(DE3)pLysS, purified (HisTrap, HiTrap Q, Sumo3 cleaved with SenP2, Superdex 200); not shown: Sumo3, N-terminal, cleaved
- binding result: binds
